Test system: MS2 coat protein
Assay: apparent KD of MS2 coat protein; designed switch direction (-1 OFF switch, 1 ON switch): -1; higher = weaker reporter binding
Summary of the method: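 Each step of the titration lasted 0.8–1.5 h at the lowest concentration and 10–20 min at the highest. The protein, SNAP-549-labelled MS2 coat protein, went from 0.7 or 1.5 nM doubling to 3 µM over RNA switches transcribed on Illumina chips by stalled E. coli RNA polymerase. Normalised cluster fluorescence was curve-fitted, and the per-design median over clusters is given as apparent KD.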

[1] = input ligand: microRNA oligo, concentration not stated
[2] = Eterna round: R95, input ligand: microRNA oligo, concentration not stated
[3] = Eterna round: R95, input ligand: FMN 200 uM
[4] = Eterna round: R95, input ligand: none

Row | Sequence | apparent KD of MS2 coat protein (input ligand: FMN 200 uM) [nM] | apparent KD of MS2 coat protein (input ligand: none) [nM] | apparent KD of MS2 coat protein [1] [nM] | apparent KD of MS2 coat protein [2] [nM] | apparent KD of MS2 coat protein [3] [nM] | apparent KD of MS2 coat protein [4] [nM]
1 | GCAGACGUAGUGAGGAUAUGCUCUACCUCGGUAGAGCAGAAGGCACAUGAGGAUCACCCAUGUGAUUCUUCUGC [Omei Ex4B B10] (Eterna round: R97, puzzle: Brourd's mod of Exclusion 4) | 324 | 47.2 |  |  |  | 
2 | ACUGACAUGAGGAUCACCCAUGUAGAUGUGUUCGCAAGCCUCUAGGAUAUAUCUAACCUACCCGGAUAGAAGGAGAGGUUCCCU [Eternabot solution 9] (Eterna round: R96, puzzle: Exclusion NG 3) | 25.2 | 31.7 | 21.1 |  |  | 
3 | UAAACAAGCUUAAGAUCCUACAUGAGGAUCACCCAUGUGCUCGUCUUAUAAGGUACUGUGACGAAAGUCACGGUACC [JL TOV1 3.06] (Eterna round: R97, puzzle: Sensor, turn-off variant 1) | 226 | 194 |  |  |  | 
4 | CUUCGUAUAGAGGAUAUAGGUUACCUCGGUAUCCUAGAAGGCUGUACAUGAGGAUCACCCAUGUACUUCAGAUC [Exclusion 6 - B - 13:b] (puzzle: Exclusion 6) |  |  |  | 12.7 |  | 
5 | CCUAGACAUGAGGAUCACCCAUGUGAGGAUAUGAUGCGAUCGUCGAAAGACGAUAGCAUCAGAAGGCACAUAUG [Fiskers Ex 1 - 5] (Eterna round: R96, puzzle: Exclusion 1) | 130 | 37.6 | 34.2 |  |  | 
6 | GCUUUUCUUUUCCUUUCUUACAUGAGGAUCACCCAUGUUUCUUGUCGUGCUCGCGUUGCUCGUCUGUCUGUCUGUUG [salish99_TOv1_r3_077(!)] (puzzle: Sensor v3, turn-off variant 1) |  |  |  | 35.1 | 44.4 | 50.8
7 | UGUCUCCUCGUCAGGAUAUUUCGUUGUGCAGACUGAAAGAAGGGACAUGAGGAUCACCCAUGUACCUCGUCGGU [Eternabot (L2) Solution 98] (Eterna round: R97, puzzle: Brourd's mod of Exclusion 4) | 22.3 | 16.9 |  |  |  | 
8 | GAGGAACAUGAGGAUCACCCAUGUGAGGAUAUGCAUAGUGAGGUAGUAGACGUUUAUUGCAGAAGGUACACUGA [JR_Exclu1_Sub079] (puzzle: Exclusion 1) |  |  |  | 25.6 |  | 
9 | GGACUGAAGCUAGGAUAUCCCGUGUGAUCACGAGGAGAAGGAGCGCACGGGUAGUCAACAUGAGGAUCACCCAUGUACAGUCCA [Laditiqu] (Eterna round: R96, puzzle: Exclusion NG 1) | 50.1 | 20.6 | 15.4 |  |  | 
10 | AUUGUUUAUGUAGGAUAUGCCUGGCGUGCCUUUGCAGAAGGACAUGAGGAUCACCCAUGUAACAUGAGGCUCACCCAUGUCGCA [salish99_ExNG1_r04_113] (Eterna round: R96, puzzle: Exclusion NG 1) | 481 | 429 | 255 |  |  | 
11 | CUUGUUUAUGUAGGAUAUGCCUGGCGUGCCUUUGCAGAAGGACAUGAGGAUCACCCAUGUAUUGCGGUCUGCGUUCAGAUCGCC [salish99_ExNG1_r4_042] (Eterna round: R96, puzzle: Exclusion NG 1) | 34.9 | 22 | 18.9 |  |  | 
12 | CCAGGCAGUGUGAGGAUAUGCUGGUGGAUACAUCAGCAGAAGGCACAUGAGGAUCACCCAUGUGAAGAGCUUGG [Mat - Exclusion 4 - JL Mod - D99] (puzzle: Brourd's mod of Exclusion 4) |  |  |  | 19 | 136 | 20.5
13 | GAGAAACAUGAGGAUCACCCAUGUGAGGAUAUGUGAGACUAAAGCGCGCAGGCUAAGGACAGAAGGCACAAGGA [Excls1-Ia] (puzzle: Exclusion 1) |  |  |  | 42.6 | 57.5 | 53
14 | AAGUAGACGGUGAGGAUAUAGGUCGAAUGACCGAUUUAGAAGGUACAUGAGGAUCACCCAUGUGGGUAACGUCG [Brourd's EX4 #29] (Eterna round: R97, puzzle: Brourd's mod of Exclusion 4) | 56.5 | 107 |  |  |  | 
15 | GUUGUCCUUGUAAGGAUAUCCGGAUAGAGCAUAUCGGAGAAGGUACAUGAGGAUCACCCAUGUCUCACCGUGCU [Eternabot (L1) Solution 95] (Eterna round: R97, puzzle: Brourd's mod of Exclusion 4) | 14.4 | 14.3 |  |  |  | 
16 | UAGCAUUGCCAAAGGUAGUGCAAAACAUGAGGAUCACCCAUGUAGGAUAUGGUAGGCAAAGCUUACCAGAAGGACAUGAUAAUU [Mat - Exclusion NG 3 - Mod of JL - D17] (Eterna round: R96, puzzle: Exclusion NG 3) | 204 | 51.5 | 46.3 |  |  | 
17 | AACAGUCCUUAGGAUAUGUGCGAUUAAUAUCGUGCAGAAGGAUGGACAUGAGGAUCACCCAUGUAAAUACUACC [Omei Ex6 A17] (Eterna round: R97, puzzle: Exclusion 6) | 62.6 | 20.9 |  |  |  | 
18 | UUGAACAUAGGAUAUAGUUGUUUGUACAUGAGGAUCACCCAUGUUAUGUAUGUUUUGUUUCUAGAAGGAUGUUGAU [JR_E5_Sub002] (puzzle: Exclusion 5) |  |  |  | 32.5 |  | 
19 | AUCCGUAGGCGCACCUCACACAUGAGGAUCACCCAUGUGCCCUACAAUCGCAAGCUGUGCUCGUUGCUGGUCCCUAC [Eternabot (L1) Solution 16] (Eterna round: R97, puzzle: Sensor, turn-off variant 1) | 45.3 | 48.5 |  |  |  | 
20 | CUGGACCCGGUAGGAUAUAUUGUGGGCGGGCGUGGAACGACAUGAGGAUCACCCAUGUGAUUGAGGUAGAAGGGCCGAGAGGUC [Excl-NG2-LRO19] (Eterna round: R96, puzzle: Exclusion NG 2) | 43.2 | 42.9 | 31.2 |  |  | 
21 | GUCAGCUCGUGAGGAUAUGCACAUGAGGAUCACCCAUGUAAGAUCAAGCUGCUUCGGCAGCAAGUGCAGAAGGCACGAGCUGAU [ENG2/9-A3] (Eterna round: R96, puzzle: Exclusion NG 2) | 148 | 210 | 179 |  |  | 
22 | GCUUCGGCAGGAUAUACAAUGAAGUUGAGAAAUCGGCUUCGACAUGAGGAUCACCCAUGUAGAAGGGUUGAAGU [-26.3, -24 kcal, A 32% 3, 3 bis] (Eterna round: R97, puzzle: Exclusion 2) | 36.3 | 48.6 |  |  |  | 
23 | UUAUCUACUGAGGAUAUUAUAUCACCCGACUGAUAAGAAGGCAGUACAUGAGGAUCACCCAUGUGGGUAGCCAU [Polaris10] (Eterna round: R97, puzzle: Exclusion 6) | 43 | 32.6 |  |  |  | 
24 | UUACUGUGAGGAUAUUACAUUUAGCGGCUAGCAACUAGGGAUAAGAAGGCACAUGAGGAUCACCCAUGUCCCGU [Eternabot (L1) Solution 35] (Eterna round: R97, puzzle: Exclusion 4) | 95.7 | 21.5 |  |  |  | 
25 | AAGUCGACGGUGAGGAUAUAGGUCGAACGACCGAUCUAGAAGGCACAUGAGGAUCACCCAUGUGGGUAACGUCG [Brourd's EX4 #33] (Eterna round: R97, puzzle: Brourd's mod of Exclusion 4) | 29 | 22.3 |  |  |  | 

From the supplement of paper PMC9170038
